Experimental data from PMC4756693, “Structural analysis of disease-related TDP-43 D169G mutation: linking enhanced stability and caspase cleavage efficiency to protein accumulation”.

Target: TDP-43 RRM1 (human, UniProt Q13148 101-191)
Assay: X-ray crystallography; crystals at pH 5.5, PEG 3350, ammonium acetate; Co-crystallization, protein:DNA 1:1.2; protein in 50 mM HEPES pH 7.5, 100 mM NaCl, 10 mM bME; hanging drop at room temperature (stated for RRM1/DNA). (TG)15 Kd
Settings: protein: recombinant; tags: N-terminal His; single strand; 8 and 9 nt modelled in the two RRM1 complexes

Sequence of TDP-43 RRM1 (Q13148 101-191): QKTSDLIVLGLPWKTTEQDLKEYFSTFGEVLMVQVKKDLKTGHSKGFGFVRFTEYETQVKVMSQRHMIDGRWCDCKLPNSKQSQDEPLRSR

GTTGAGCGTT (ssDNA, none) [10-nt ssDNA]
binding result: binds
